According to article PMC7144912 (Nucleic Acids Research, 2020):
Where two headings read alike, the source gives them in different places.

How the values were obtained:
crystal structure = molecular target: the molecule itself; assay: crystal structure
[1] = molecular target: T1, DNMT3B catalytic domain (3B-CD);DNMT3L catalytic-like domain (3L-CD) (Homo sapiens;Homo sapiens, UniProt Q9UBC3;Q9UJW3 571-853;178-379, |); assay: X-ray crystallography
[2] = molecular target: T1, DNMT3B catalytic domain (3B-CD);DNMT3L …; assay: X-ray crystallography; remark: listed apart in the source

T1 sequence (Q9UJW3 178-379, one chain of several): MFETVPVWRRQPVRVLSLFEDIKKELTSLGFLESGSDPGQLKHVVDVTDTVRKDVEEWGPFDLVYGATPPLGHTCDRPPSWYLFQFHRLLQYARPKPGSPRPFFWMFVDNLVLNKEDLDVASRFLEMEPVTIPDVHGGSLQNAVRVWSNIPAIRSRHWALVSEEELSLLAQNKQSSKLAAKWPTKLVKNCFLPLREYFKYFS

B1: catalytic domain of human DNMT3B (3B-CD, residues 571–853) (domain or fragment, UniProt Q9UBC3 571-853, looked up)
chain: RRRPIRVLSLFDGIATGYLVLKELGIKVGKYVASEVCEESIAVGTVKHEGNIKYVNDVRNITKKNIEEWGPFDLVIGGSPCNDLSNVNPARKGLYEGTGRLFFEFYHLLNYSRPKEGDDRPFFWMFENVVAMKVGDKRDISRFLECNPVMIDAIKVSAAHRARYFWGNLPGMNRPVIASKNDKLELQDCLEYNRIAKLKKVQTITTKSNSIKQGKNQLFPVVMNGKEDVLWCTELERIFGFPVHYTDVSNMGRGARQKLLGRSWSVPVIRHLFAPLKDYFACE
Question: Does B1 bind (crystal structure)?
Answer: binds

B2: CpGpG crystallization duplex (dsDNA)
DNA 1: GAATTCGGAAAAATTTTTCCGAATT
DNA 2: GAATTCGGAAAAATTTTTCCGAATT
Question: Does B2 bind [1]?
Answer: binds

B3: CpGpT crystallization duplex (dsDNA)
DNA 1: GCATGCGTTCTAATTAGAACGCATG
DNA 2: GCATGCGTTCTAATTAGAACGCATG
Question: Does B3 bind [2]?
Answer: binds
